Among the data in the Human Domainome abundance scans (Beltran et al. 2025) are abundance fitness values, retold here.

B1: CD2-associated protein, residues 1 to 59; numbered along this chain, Q9Y5K6 (parent)
chain: MVDYIVEYDYDAVHDDELTIRVGEIIRNVKKLQEEGWLEGELNGRRGMFPDNFVKEIKR

± gives the uncertainty stated by the source.

In the series the parent is B1. The series can be described thus: abundance fitness (aPCA) (normalised: wild type 0, dead -1); higher = more abundant; growth selection in yeast, the domain comes from the species named. Conditions: Homo sapiens.
As for MVDYIVEYDYDAVHDDELTIRVGEIIRNVKKLQEEGWLEGELNGRRGMFVDNFVKEIKR [P50V], the abundance fitness is -0.996 ± 0.28.
The same measure for MVDYIVEYDYDAVHDDELTIRVGEIIRNVKKLQEEGWLEGELNGRRGMFHDNFVKEIKR [P50H]: -0.149 ± 0.17; for MVDYIVEYDYDAVHDDELTIRVGEIIRNVKKLQEEGWLEGELNGRRGMFSDNFVKEIKR [P50S]: -0.329 ± 0.11; for MVDYIVEYDYDAVHDDELTIRVGEIIRNVKKLQEEGWLEGELNGRRGMFGDNFVKEIKR [P50G]: -0.322 ± 0.12.
Regarding MVDYIVEYDYDAVHDDELTIRVGEIIRNVKKLQEEGWLEGELNGRRGMFRDNFVKEIKR [P50R], the abundance fitness was found to be 0.115 ± 0.15.
As to MVDYIVEYDYDAVHDDELTIRVGEIIRNVKKLQEEGWLEGELNGRRGMFADNFVKEIKR [P50A], the abundance fitness is -0.502 ± 0.16.
In the case of MVDYIVEYDYDAVHDDELTIRVGEIIRNVKKLQEEGWLEGELNGRRGMFNDNFVKEIKR [P50N] it was -0.261 ± 0.23.
The same measure for MVDYIVEYDYDAVHDDELTIRVGEIIRNVKKLQEEGWLEGELNGRRGMFEDNFVKEIKR [P50E]: -0.968 ± 0.4; for MVDYIVEYDYDAVHDDELTIRVGEIIRNVKKLQEEGWLEGELNGRRGMFLDNFVKEIKR [P50L]: -0.412 ± 0.11; for MVDYIVEYDYDAVHDDELTIRVGEIIRNVKKLQEEGWLEGELNGRRGMFFDNFVKEIKR [P50F]: -0.589 ± 0.16.
In the case of MVDYIVEYDYDAVHDDELTIRVGEIIRNVKKLQEEGWLEGELNGRRGMFKDNFVKEIKR [P50K] it was -0.184 ± 0.28; in that of MVDYIVEYDYDAVHDDELTIRVGEIIRNVKKLQEEGWLEGELNGRRGMFIDNFVKEIKR [P50I], -0.843 ± 0.29; in that of MVDYIVEYDYDAVHDDELTIRVGEIIRNVKKLQEEGWLEGELNGRRGMFTDNFVKEIKR [P50T], -0.746 ± 0.24.
Take MVDYIVEYDYDAVHDDELTIRVGEIIRNVKKLQEEGWLEGELLGRRGMFPDNFVKEIKR [N43L]: the abundance fitness was -0.323 ± 0.06.
In the case of MVDYIVEYDYDAVHDDELTIRVGEIIRNVKKLQEEGWLEGELVGRRGMFPDNFVKEIKR [N43V], the abundance fitness was -0.694 ± 0.18.
On to MVDYIVEYDYDAVHDDELTIRVGEIIRNVKKLQEEGWLEGELHGRRGMFPDNFVKEIKR [N43H], for which the abundance fitness worked out at 0.145 ± 0.15.
As to MVDYIVEYDYDAVHDDELTIRVGEIIRNVKKLQEEGWLEGELKGRRGMFPDNFVKEIKR [N43K], the abundance fitness is -0.149 ± 0.12.
Regarding MVDYIVEYDYDAVHDDELTIRVGEIIRNVKKLQEEGWLEGELTGRRGMFPDNFVKEIKR [N43T], the abundance fitness is -0.62 ± 0.12.
Consider MVDYIVEYDYDAVHDDELTIRVGEIIRNVKKLQEEGWLEGELRGRRGMFPDNFVKEIKR [N43R], for which the abundance fitness is -0.082 ± 0.089.
With MVDYIVEYDYDAVHDDELTIRVGEIIRNVKKLQEEGWLEGELPGRRGMFPDNFVKEIKR [N43P], the abundance fitness is -0.653 ± 0.2.
The same measure for MVDYIVEYDYDAVHDDELTIRVGEIIRNVKKLQEEGWLEGELQGRRGMFPDNFVKEIKR [N43Q]: -0.287 ± 0.12.
MVDYIVEYDYDAVHDDELTIRVGEIIRNVKKLQEEGWLEGELSGRRGMFPDNFVKEIKR [N43S]: the abundance fitness was -0.221 ± 0.051.
Take MVDYIVEYDYDAVHDDELTIRVGEIIRNVKKLQEEGWLEGELMGRRGMFPDNFVKEIKR [N43M]: the abundance fitness was -0.395 ± 0.15.
In the case of MVDYIVEYDYDAVHDDELTIRVGEIIRNVKKLQEEGWLEGELWGRRGMFPDNFVKEIKR [N43W] it was -0.562 ± 0.26; in that of MVDYIVEYDYDAVHDDELTIRVGEIIRNVKKLQEEGWLEGELYGRRGMFPDNFVKEIKR [N43Y], -0.072 ± 0.11.
On to MVDYIVEYDYDAVHDDELTIRVGEIIRNVKKLQEEGWLEGELNGRRGRFPDNFVKEIKR [M48R], for which the abundance fitness was 0.071 ± 0.062.
In the case of MVDYIVEYDYDAVHDDELTIRVGEIIRNVKKLQEEGWLEGELNGRRGHFPDNFVKEIKR [M48H] it was -0.257 ± 0.11; in that of MVDYIVEYDYDAVHDDELTIRVGEIIRNVKKLQEEGWLEGELNGRRGAFPDNFVKEIKR [M48A], 0.045 ± 0.086.
In the case of MVDYIVEYDYDAVHDDELTIRVGEIIRNVKKLQEEGWLEGELNGRRGWFPDNFVKEIKR [M48W] it was -0.126 ± 0.11; in that of MVDYIVEYDYDAVHDDELTIRVGEIIRNVKKLQEEGWLEGELNGRRGYFPDNFVKEIKR [M48Y], -0.063 ± 0.16; in that of MVDYIVEYDYDAVHDDELTIRVGEIIRNVKKLQEEGWLEGELNGRRGGFPDNFVKEIKR [M48G], -0.33 ± 0.11.
For the variant MVDYIVEYDYDAVHDDELTIRVGEIIRNVKKLQEEGWLEGELNGRRGCFPDNFVKEIKR [M48C], the abundance fitness is -0.012 ± 0.18.
On to MVDYIVEYDYDAVHDDELTIRVGEIIRNVKKLQEEGWLEGELNGRRGQFPDNFVKEIKR [M48Q], for which the abundance fitness was -0.015 ± 0.082.
In the case of MVDYIVEYDYDAVHDDELTIRVGEIIRNVKKLQEEGWLEGELNGRRGNFPDNFVKEIKR [M48N] it was 0.047 ± 0.17.
The same measure for MVDYIVEYDYDAVHDDELTIRVGEIIRNVKKLQEEGWLEGELNGRRGVFPDNFVKEIKR [M48V]: -0.053 ± 0.069.
Turning to MVDYIVEYDYDAVHDDELTIRVGEIIRNVKKLQEEGWLEGELNGRRGLFPDNFVKEIKR [M48L], the abundance fitness was -0.065 ± 0.079.
The same measure for MVDYIVEYDYDAVHDDELTIRVGEIIRNVKKLQEEGWLEGELNGRRGDFPDNFVKEIKR [M48D]: -0.573 ± 0.23; for MVDYIVEYDYDAVHDDELTIRVGEIIRNVKKLQEEGWLEGELNGRRGTFPDNFVKEIKR [M48T]: 0.035 ± 0.094; for MVDYIVEYDYDAVHDDELTIRVGEIIRNVKKLQEEGWLEGELNGRRGSFPDNFVKEIKR [M48S]: 0.048 ± 0.083.
Take MVDYIVEYDYDAVHDDELTIRVGEIIRNVKKLQEEGWLEGELNGRRGPFPDNFVKEIKR [M48P]: the abundance fitness is -0.524 ± 0.22.
The same measure for MVDYIVEYDYDAVHDDELTIRVGEIIRNVKKLQEEGWLEGELNGRRGKFPDNFVKEIKR [M48K]: 0.093 ± 0.097; for MVDYIVEYDYDAVHDDELTIRVGEIIRNVKKLQEEGWLEGELNGRRGIFPDNFVKEIKR [M48I]: 0.115 ± 0.17.
The same measure for MVDYIVEYDYDAVHDDELTIRVGEIIRNVKKLQEEGWLEGELNGRRGFFPDNFVKEIKR [M48F]: -0.175 ± 0.13.
As for MVDYIVEYDYDAVHDDELTIRVGEIIRNVKKLQEEGWLEGELNGRRGMFPENFVKEIKR [D51E], the abundance fitness came to 0.032 ± 0.2.
Take MVDYIVEYDYDAVHDDELTIRVGEIIRNVKKLQEEGWLEGELNGRRGMFPGNFVKEIKR [D51G]: the abundance fitness was -0.047 ± 0.076.
